Experimental data reported in publication PMC5748984 (The Journal of Cell Biology, 2018).

T1: Trs120-TAP (budding yeast, UniProt Q04183 1-1289)
T1 sequence: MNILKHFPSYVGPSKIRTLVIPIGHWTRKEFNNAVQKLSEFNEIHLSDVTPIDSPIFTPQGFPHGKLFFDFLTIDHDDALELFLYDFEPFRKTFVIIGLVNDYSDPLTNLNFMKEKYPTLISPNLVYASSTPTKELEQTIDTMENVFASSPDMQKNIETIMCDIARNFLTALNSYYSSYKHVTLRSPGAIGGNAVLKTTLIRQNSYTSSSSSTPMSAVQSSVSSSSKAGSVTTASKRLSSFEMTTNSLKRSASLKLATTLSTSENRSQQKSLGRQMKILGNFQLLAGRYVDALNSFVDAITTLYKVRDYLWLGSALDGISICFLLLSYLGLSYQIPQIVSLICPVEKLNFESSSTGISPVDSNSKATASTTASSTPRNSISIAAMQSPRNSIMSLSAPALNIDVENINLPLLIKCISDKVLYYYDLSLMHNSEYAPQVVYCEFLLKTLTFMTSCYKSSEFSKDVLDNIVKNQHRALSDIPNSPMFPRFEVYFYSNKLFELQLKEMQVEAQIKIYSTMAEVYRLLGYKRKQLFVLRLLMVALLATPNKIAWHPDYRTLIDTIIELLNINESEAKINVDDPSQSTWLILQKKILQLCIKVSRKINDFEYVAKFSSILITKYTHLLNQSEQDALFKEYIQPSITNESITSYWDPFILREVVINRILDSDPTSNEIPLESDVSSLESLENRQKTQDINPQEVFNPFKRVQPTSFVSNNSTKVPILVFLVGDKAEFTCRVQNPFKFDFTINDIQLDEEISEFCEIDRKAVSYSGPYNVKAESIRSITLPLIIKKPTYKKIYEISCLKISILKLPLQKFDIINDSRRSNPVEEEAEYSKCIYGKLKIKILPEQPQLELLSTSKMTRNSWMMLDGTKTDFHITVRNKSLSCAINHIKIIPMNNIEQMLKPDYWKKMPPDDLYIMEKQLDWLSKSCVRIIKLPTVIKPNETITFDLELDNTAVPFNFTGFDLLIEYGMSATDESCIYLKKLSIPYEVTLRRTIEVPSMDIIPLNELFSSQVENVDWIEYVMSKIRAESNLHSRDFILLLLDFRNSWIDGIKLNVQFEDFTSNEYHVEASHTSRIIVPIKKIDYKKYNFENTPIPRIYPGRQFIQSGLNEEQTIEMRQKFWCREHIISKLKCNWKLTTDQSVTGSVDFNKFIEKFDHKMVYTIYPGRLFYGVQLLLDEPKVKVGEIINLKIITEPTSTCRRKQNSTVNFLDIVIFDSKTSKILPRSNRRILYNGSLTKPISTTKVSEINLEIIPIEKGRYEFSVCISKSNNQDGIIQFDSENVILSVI

T2: Trs85-TAP (from yeast) (budding yeast, UniProt P46944 1-698)
T2 sequence: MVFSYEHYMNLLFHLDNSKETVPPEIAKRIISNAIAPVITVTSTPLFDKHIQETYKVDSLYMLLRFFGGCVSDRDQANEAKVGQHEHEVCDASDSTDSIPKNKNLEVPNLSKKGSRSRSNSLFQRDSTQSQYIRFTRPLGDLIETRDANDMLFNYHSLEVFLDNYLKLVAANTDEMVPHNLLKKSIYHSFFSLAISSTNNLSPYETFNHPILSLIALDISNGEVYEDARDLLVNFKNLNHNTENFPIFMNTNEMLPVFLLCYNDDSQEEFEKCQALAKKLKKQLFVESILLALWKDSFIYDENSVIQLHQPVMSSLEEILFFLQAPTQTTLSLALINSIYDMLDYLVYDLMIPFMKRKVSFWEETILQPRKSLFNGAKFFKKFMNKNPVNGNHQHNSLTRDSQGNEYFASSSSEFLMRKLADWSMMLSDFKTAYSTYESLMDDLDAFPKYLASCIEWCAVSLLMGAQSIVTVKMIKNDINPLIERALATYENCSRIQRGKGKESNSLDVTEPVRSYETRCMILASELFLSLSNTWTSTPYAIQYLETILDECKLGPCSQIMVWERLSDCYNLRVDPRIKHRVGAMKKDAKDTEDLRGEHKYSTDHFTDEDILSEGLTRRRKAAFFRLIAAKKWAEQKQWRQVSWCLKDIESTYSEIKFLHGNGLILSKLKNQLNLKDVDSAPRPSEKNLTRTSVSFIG

T3: Gdi1 (UniProt P39958 1-451)
T3 sequence: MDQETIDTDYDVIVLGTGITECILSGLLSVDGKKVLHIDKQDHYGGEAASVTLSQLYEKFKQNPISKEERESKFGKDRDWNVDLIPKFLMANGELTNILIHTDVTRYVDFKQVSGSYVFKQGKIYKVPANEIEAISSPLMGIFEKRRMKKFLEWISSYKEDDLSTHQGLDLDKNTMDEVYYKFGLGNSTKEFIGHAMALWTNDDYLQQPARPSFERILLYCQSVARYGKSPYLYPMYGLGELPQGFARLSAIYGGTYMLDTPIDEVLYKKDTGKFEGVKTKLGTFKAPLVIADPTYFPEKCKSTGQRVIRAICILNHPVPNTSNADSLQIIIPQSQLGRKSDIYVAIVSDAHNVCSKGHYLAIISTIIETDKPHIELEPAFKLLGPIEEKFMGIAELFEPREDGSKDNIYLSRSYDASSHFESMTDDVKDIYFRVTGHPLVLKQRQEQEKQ

B1: Bet3 (endogenous, yeast) (natural protein)
chain: MVSTTQSRSLKAMGEEIWKNKTEKINTELFTLTYGSIVAQLCQDYERDFNKVNDHLYSMGYNIGCRLIEDFLARTALPRCENLVKTSEVLSKCAFKIFLNITPNITNWSHNKDTFSLILDENPLADFVELPMDAMKSLWYSNILCGVLKGSLEMVQLDCDVWFVSDILRGDSQTEIKVKLNRILKDEIPIGED
B2: prenylated Ypt1 (natural protein)
chain: not shown
modifications: prenylated with geranylgeranyl pyrophosphate in vitro; loaded with mantGDP

Tests used:
Trs120-TAP = target: T1, Trs120-TAP; assay: tandem affinity purification
Trs85-TAP (from yeast) = target: T2, Trs85-TAP (from yeast); assay: tandem affinity purification
Gdi1 = target: T3, Gdi1; assay: SEC

Binder	stoichiometry N (Trs120-TAP)	stoichiometry N (Trs85-TAP (from yeast))	binding result (Gdi1)
B1	2	2	–
B2	–	–	binds
